Substrate in this data set: N[C@@H](CC(=O)c1ccccc1NC=O)C(=O)O
Nature of the data set: purified protein. The data set is classed as biochemical, Burkholderia cenocepacia. To be noted: 0.1 M sodium phosphate, pH 7.4, 20 μM ZnCl2, 25°C.

Experimental findings from publication PMC4243253 are described below.

B1: BcKynB (Burkholderia cenocepacia J2315) (protein)
chain: MDTLWDISPPVSPATPVWPGDTPVAVERVWRMEAGSPVNVARLTLSPHTGAHCDAPLHYDADGAPIGAVPLDTYLGPCRVIHCIGAAPVVRPADVEAALDGVPPRVLLRTYARAAVEQWDSNFCAVAPDTVDLLAAHGVKLIGIDTPSLDPQESKTMDAHRRVRAHRMAILEGIVLDDVPPGDYELIALPLKFATLDASPVRAVLRALPAQAS
For orientation: Km means the concentration of substrate that gives half-maximal velocity. The term Vmax denotes the top rate of the reaction or transport when substrate is in excess. What is called kcat is the number of substrate molecules converted per active site and unit of time at saturation. One may read the kcat/Km as the turnover number divided by the Michaelis constant. With B1, the Km is 570 ± 20 µM, the Vmax stood at 0.0582 µmol/min, the kcat came out at 43.9 s⁻¹ and the specificity constant (kcat/Km) worked out at 77100 M⁻¹ s⁻¹.
